# Laboratory results as given in paper PMC6466456.
# Where two headings read alike, the source gives them in different places.
# B1: KM4 (ssDNA)
# DNA: CTTACCTCTTTCTCCCACCGCCCCAAACATAATTGGTATACCGCAACACAACGCACAACACACAACAATCAAT
# B2: KM4-FITC (ssDNA)
# DNA: B1 DNA
# modifications: 5' AmMC6
# B3: NS-DNA (ssDNA)
# DNA: CGACATCTTTAACCTAGCCCTTGTCAGTGCTCTATGACAAGGTGTGTAGACGACATCTAACCTAGC
# B4: LINN2 (ssDNA)
# DNA: CCGCTTTATTGTTAATTAAGTTTTATATTTCGCACAACACACAACAATCAATATC
# Tests used:
# [1] = target: T1, EGFR, human recombinant, hIgG1-Fc tag (Sino Biological) (Homo sapiens, UniProt P00533 25-645); assay: thermofluorimetric analysis
# [2] = target: T1, EGFR, human recombinant, hIgG1-Fc tag …; assay: flow cytometry, EGFR-coated microspheres
# [3] = target: T1, EGFR, human recombinant, hIgG1-Fc tag …; assay: thermofluorimetric analysis; remark: listed apart in the source
# [4] = target: T1, EGFR, human recombinant, hIgG1-Fc tag …; assay: thermofluorimetric analysis; remark: listed apart in the source
binder,measurement,setting,value
B1,Kd,[1],~1 nM
B2,Kd,[2],46 nM
B3,binding result,[3],no binding
B4,binding result,[4],binds
